The text below walks through data of patent US20190276873A1.

Holding throughout (assay): cell-based or functional assay
Assay [1] concerns the target Sensor 1: NNano-SV2C-p25-CNano (human).
Assay [2] concerns the target Sensor 2: NNano-p25-CNano (human).
Assay [3] concerns the target In vivo assay construct: Nnano(1-159)-Firefly(Full length)-GGGGS-p25(FullLength)-Cnano(160-170) (Photinus pyralis; human).
Assay [4] concerns the target Sensor 3: NNano-hVAMP1-CNano (human).

In vivo assay construct: Nnano(1-159)-Firefly(Full length)-GGGGS-p25(FullLength)-Cnano(160-170) (Photinus pyralis; human), sequence (P08659 other isoform, or with tags, fused parts or gaps): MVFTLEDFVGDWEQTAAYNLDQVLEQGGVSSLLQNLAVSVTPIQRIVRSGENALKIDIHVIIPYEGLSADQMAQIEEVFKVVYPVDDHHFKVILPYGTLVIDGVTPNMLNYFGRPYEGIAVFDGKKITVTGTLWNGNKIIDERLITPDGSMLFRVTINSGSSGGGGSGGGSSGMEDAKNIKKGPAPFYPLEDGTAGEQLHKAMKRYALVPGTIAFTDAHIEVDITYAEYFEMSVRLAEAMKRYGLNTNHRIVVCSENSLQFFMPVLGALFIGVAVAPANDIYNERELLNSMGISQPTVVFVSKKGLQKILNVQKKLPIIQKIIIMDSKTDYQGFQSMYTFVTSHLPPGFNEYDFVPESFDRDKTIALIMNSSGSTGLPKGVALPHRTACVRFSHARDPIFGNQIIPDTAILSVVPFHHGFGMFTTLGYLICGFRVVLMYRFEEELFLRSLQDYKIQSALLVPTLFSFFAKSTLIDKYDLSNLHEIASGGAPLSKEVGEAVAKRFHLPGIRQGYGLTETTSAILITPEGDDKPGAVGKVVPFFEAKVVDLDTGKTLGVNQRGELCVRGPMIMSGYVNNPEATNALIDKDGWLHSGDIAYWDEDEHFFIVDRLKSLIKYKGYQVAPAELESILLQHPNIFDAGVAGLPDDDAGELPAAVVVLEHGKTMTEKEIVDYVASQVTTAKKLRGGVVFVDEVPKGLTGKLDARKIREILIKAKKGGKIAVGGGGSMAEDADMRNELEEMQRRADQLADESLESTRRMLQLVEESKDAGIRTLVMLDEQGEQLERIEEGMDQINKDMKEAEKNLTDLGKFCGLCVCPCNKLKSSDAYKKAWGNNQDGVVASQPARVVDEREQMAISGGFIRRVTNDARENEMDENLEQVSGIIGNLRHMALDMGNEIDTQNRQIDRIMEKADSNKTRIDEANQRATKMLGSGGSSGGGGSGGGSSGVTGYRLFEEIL

In assay [1], “Botulinum neurotoxin A (BoNT/A) (from UniProt P0DPI0 2-1296) (enzyme)” returned an EC50 (percentage of luminescence of NANOLUC luciferase, after 4 h at 37 C) of 9.73 pM; an EC50 (percentage of luminescence of NANOLUC luciferase, after 24 h at 37 C) of 7.86 pM; a fold sensitivity (EC50) against the sensor without SV2C of 5 fold. In assay [2], this substance came in with an EC50 (percentage of luminescence of NANOLUC luciferase, after 4 h at 37 C) of 48.3 pM and an EC50 (percentage of luminescence of NANOLUC luciferase, after 24 h at 37 C) of 35.9 pM. Moreover, the EC50 (ratio NANOLUC/Firefly in lysates of neurons, 48 h after toxin) in assay [3] amounted to 2.9 pM.

In the case of “Botulinum neurotoxin B (BoNT/B) (from UniProt P10844 2-1291) (enzyme)”, in assay [4], the EC50 (percentage of luminescence of NANOLUC luciferase, after 4 h at 37 C) is 75.7 pM and the EC50 (percentage of luminescence of NANOLUC luciferase, after 24 h at 37 C) worked out at 3.9 pM.
